Experimental findings from patent publication US20200207837A1 (published 2020) are described below.

Changes are numbered by the printed parent chain. A value given as a limit tells only on which side of the number the result lay.

The target in test [1] is T1, activated KLK4 (human KLK4, C-terminal His tag, pro-KLK4 activated with thermolysin) (UniProt Q9Y5K2 31-254).
T1 chain: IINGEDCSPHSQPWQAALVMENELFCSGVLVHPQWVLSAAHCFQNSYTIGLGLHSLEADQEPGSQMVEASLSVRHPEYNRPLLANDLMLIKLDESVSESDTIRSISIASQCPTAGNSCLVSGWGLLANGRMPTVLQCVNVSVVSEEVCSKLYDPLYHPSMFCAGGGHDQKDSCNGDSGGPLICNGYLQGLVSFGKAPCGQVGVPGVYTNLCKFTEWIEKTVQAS
Kind of test: peptide substrate degradation inhibition.

In test [2] the target is T1, activated KLK4 (human KLK4, C-terminal …). Briefly: peptide substrate degradation inhibition.
Test [3] concerns the target T2, activated KLK8 (human KLK8, C-terminal His tag, pro-KLK8 activated with thermolysin) (UniProt O60259 33-260).
T2 chain: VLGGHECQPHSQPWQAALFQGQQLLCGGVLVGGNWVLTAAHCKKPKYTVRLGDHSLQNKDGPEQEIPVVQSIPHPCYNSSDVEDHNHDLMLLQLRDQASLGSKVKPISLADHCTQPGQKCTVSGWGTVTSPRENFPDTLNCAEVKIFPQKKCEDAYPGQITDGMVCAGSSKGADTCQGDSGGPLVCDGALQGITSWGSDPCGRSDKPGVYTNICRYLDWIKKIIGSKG
Briefly: peptide substrate degradation inhibition.

Test [4] concerns the target activated KLK1 (human KLK1, C-terminal His tag, pro-KLK1 activated with thermolysin) (UniProt P06870 25-262). Briefly: peptide substrate degradation inhibition.
The target in test [5] is T3, KLK4 biotinylated with EZ-Link NHS-PEG4-Biotin (UniProt Q9Y5K2 31-254, biotinylated with EZ-Link NHS-PEG4-Biotin (sites not given)).
T3 chain: T1 chain
Kind of test: SPR (Biacore T200).

Sequence of activated KLK1 (human KLK1, C-terminal His tag, pro-KLK1 activated with thermolysin) (P06870 25-262): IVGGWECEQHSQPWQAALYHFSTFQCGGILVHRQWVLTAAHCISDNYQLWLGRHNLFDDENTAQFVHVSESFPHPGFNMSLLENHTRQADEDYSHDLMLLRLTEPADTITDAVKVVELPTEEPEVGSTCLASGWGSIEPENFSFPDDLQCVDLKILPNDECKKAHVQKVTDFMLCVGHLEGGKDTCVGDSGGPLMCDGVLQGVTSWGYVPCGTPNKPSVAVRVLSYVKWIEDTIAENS

B1: KLK4 inhibitory peptide K40004 (designed binder)
chain: GSGMKETAAAKFERQHMDSPDLGTDDDDKAMADIGSANSDPQFGLFSKYRTPNCEHAQLGVCQKLYQPVCGSDMSTYANECTLCMKIREGGHNIKIIRNGPCGASAAA
In the case of B1, in test [1], the affinity, expressed as Ki, was 0.38 nM. Also, the IC50 – broadly, the point on the concentration scale where inhibition reaches its midpoint – in test [2] was 2.1 nM; in test [3], greater than 1000 nM; in test [4], greater than 1000 nM.

B2: KLK4/KLK8 inhibitory peptide K41046 (designed binder)
chain: B1 chain with E55G, H56R, A57Y, Q58Y, L59R, V61W, Q63F, L65S, Y66L, Q67E
As for B2, the affinity in test [1] corresponds to a Ki of 0.31 nM. The results for the half-maximal inhibitory concentration (IC50) in test [2], in test [3] and in test [4] were 2 nM, 283 nM and greater than 1000 nM, respectively.

B3: KLK1 inhibitory peptide K10062 (designed binder)
chain: B1 chain with E55D, H56I, A57Y, L59V, G60D, V61R, Q63W, K64W, L65A, Y66S
For B3, the IC50 is greater than 1000 nM in test [2], greater than 1000 nM in test [3] and 12 nM in test [4].

B4: KLK4/KLK8 inhibitory peptide K41047 (designed binder)
chain: GSGMKETAAAKFERQHMDSPDLGTDDDDKAMADIGSANSDPQFGLFSKYRTPNCMRFHKDGCARIYDPVCGSDMSTYANECTLCMKIREGGHNIKIIRNGPCGASAAA
For B4, the Ki (usually a measure of affinity in units of concentration, obtained from inhibition or displacement) in test [1] is 1.38 nM. For the same molecule, the concentration for half-maximal inhibition (IC50) was 7.4 nM in test [2], 31.5 nM in test [3] and greater than 1000 nM in test [4].

B5: KLK4/KLK8 inhibitory peptide K41021 (designed binder)
chain: B4 chain with M55R, R56K, F57H, H58T, K59L
Consider B5, for which the inhibitory constant (Ki) in test [1] was found to be 10.7 nM. In addition, the IC50 in test [2] was 53 nM; in test [3], 7.5 nM; in test [4], greater than 1000 nM.

B6: KLK4/KLK8 inhibitory peptide K41025 (designed binder)
chain: B4 chain with M55S, F57Y, H58K, K59S, D60G, A63T, Y66F
In test [1], B6 showed a Ki of 16.3 nM. Besides, the IC50 was 86 nM in test [2], 17 nM in test [3] and greater than 1000 nM in test [4].

B7: KLK4/KLK8 inhibitory peptide K41024 (designed binder)
chain: B4 chain with M55T, F57Y, H58V, K59V, D60N, A63S, I65V
B7 gave a Ki in test [1] of 74.6 nM. Also, the 50% inhibitory concentration (IC50) in test [2] is 293 nM; in test [3], 8 nM; in test [4], greater than 1000 nM.

B8: KLK4/KLK8 inhibitory peptide K41043 (designed binder)
chain: B4 chain with M55R, F57Y, H58S, K59I, D60H, A63N, I65M, D67A
For B8, in test [5], the Kd (as a rule, the free concentration of one partner at which half of the binding sites on the other are occupied at equilibrium, for simple one-to-one binding) is 0.00891 nM. In test [1], this molecule showed a Ki of 0.21 nM. Further, the IC50 in test [2] was 1.9 nM; in test [3], 5.3 nM; in test [4], greater than 1000 nM.

B9: KLK4/KLK8 inhibitory peptide K41042 (designed binder)
chain: B4 chain with M55S, F57Y, H58R, K59R, D60E, A63N, I65M, D67N
For B9, the Ki in test [1] came out at 2.8 nM. The IC50 in test [2] was 15.7 nM; in test [3], 17.5 nM; in test [4] it was greater than 1000 nM.

B10: KLK4/KLK8 inhibitory peptide K41041 (designed binder)
chain: B4 chain with M55Q, F57Y, H58S, K59Q, D60W, A63T, I65Q, Y66L
Regarding B10, affinity in test [1] was put at a Ki of 0.4 nM. The IC50 in test [2] is 2.7 nM; in test [3], 11.4 nM; in test [4] it was greater than 1000 nM.

B11: KLK4 inhibitory peptide K40003 (designed binder)
chain: B1 chain with H56L, A57Y, Q58V, L59E, G60D, K64R, L65I, Y66F, Q67K
For the molecule B11, in test [5], the Kd was 0.0232 nM. The same molecule had a Ki in test [1] of 0.2 nM. The IC50 in test [2] was 1.8 nM; in test [3], greater than 1000 nM; in test [4], greater than 1000 nM.

B12: KLK4/KLK8 inhibitory peptide K41045 (designed binder)
chain: B4 chain with M55R, R56K, F57Q, H58Y, K59W, D60V, A63N, I65M, D67A
Take B12: affinity in test [1] was put at a Ki of 0.32 nM. Moreover, the IC50 in test [2] is 2.3 nM; in test [3], 114 nM; in test [4], greater than 1000 nM.

B13: KLK1 inhibitory peptide K10066 (designed binder)
chain: GSGMKETAAAKFERQHMDSPDLGTDDDDKAMADIGSANSDPQFGLFSKYRTPNCSVALRDICWWTSEPVCGSDMSTYANECTLCMKIREGGHNIKIIRNGPCGASAAA
Turning to B13, the half-inhibitory concentration (IC50) in test [2] is greater than 1000 nM; in test [3], greater than 1000 nM; in test [4], 12 nM.

B14: KLK1 inhibitory peptide K10071 (designed binder)
chain: GSGMKETAAAKFERQHMDSPDLGTDDDDKAMADIGSANSDPQFGLFSKYRTPNCDQNKYRDCHYYYKPVCGSDMSTYANECTLCMKIREGGHNIKIIRNGPCGASAAA
B14: the IC50 is greater than 1000 nM in test [2], greater than 1000 nM in test [3] and 20 nM in test [4].

B15: KLK4/KLK8 inhibitory peptide K41026 (designed binder)
chain: B4 chain with M55Q, F57Y, H58K, K59M, D60R, A63N, I65M
In the case of B15, the affinity in test [1] corresponds to a Ki of 69.3 nM. The IC50 in test [2] was 293 nM; in test [3], 9.1 nM; in test [4], greater than 1000 nM.

B16: KLK4 inhibitory peptide K40001 (designed binder)
chain: B1 chain with E55R, H56K, A57Y, Q58E, L59Y, K64R, L65T, Q67L
As to B16, the Kd in test [5] amounted to 0.00208 nM. In addition, the affinity in test [1] corresponds to a Ki of 0.16 nM. For the same molecule, the IC50 in test [2] was 1.8 nM; in test [3], greater than 1000 nM; in test [4] it was greater than 1000 nM.

B17: KLK4 inhibitory peptide K40005 (designed binder)
chain: B14 chain with D55S, N57Q, K58A, Y59M, R60G, D61A, H63Q, Y64R, Y65I
In test [1], B17 showed a Ki of 0.21 nM. The IC50 in test [2] is 2.2 nM; in test [3] it was greater than 1000 nM; in test [4], greater than 1000 nM.

B18: KLK1 inhibitory peptide K10061 (designed binder)
chain: B14 chain with D55A, Q56R, K58N, Y59I, R60V, H63F
Regarding B18, the IC50 is greater than 1000 nM in test [2], greater than 1000 nM in test [3] and 13 nM in test [4].
